Target: srrt_arath SE (UniProt Q9ZVD0)
Chain of UniProt Q9ZVD0 (Q9ZVD0 whole entry): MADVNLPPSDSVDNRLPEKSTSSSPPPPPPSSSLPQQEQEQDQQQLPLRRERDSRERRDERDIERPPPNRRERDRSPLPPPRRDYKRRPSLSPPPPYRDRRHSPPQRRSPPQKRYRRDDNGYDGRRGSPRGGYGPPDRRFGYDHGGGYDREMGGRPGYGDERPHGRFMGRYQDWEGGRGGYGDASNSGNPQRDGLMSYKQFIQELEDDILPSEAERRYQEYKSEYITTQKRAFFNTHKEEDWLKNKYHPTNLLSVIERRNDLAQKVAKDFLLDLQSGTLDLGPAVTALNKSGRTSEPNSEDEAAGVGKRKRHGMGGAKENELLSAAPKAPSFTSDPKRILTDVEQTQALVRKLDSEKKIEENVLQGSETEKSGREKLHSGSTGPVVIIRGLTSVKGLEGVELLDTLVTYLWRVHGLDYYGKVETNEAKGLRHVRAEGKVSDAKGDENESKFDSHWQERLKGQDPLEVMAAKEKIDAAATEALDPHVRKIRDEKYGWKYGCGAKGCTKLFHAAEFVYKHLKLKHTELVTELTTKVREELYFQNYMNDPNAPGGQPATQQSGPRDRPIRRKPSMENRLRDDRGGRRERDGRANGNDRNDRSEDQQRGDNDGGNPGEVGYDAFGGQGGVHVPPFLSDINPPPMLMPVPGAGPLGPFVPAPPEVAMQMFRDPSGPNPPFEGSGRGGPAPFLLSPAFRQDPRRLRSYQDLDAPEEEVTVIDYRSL

**Q.** For “ATP-dependent helicase BRM (Arabidopsis thaliana (Mouse-ear cress)), Q6EVK6 E1747A”, which “effect of a mutation on the interaction” value is on record?
**A.** disrupting interaction

Source: IntAct's records for PubMed 29769717
